Assay: soluble on expression in E. coli; label from the status in PepcDB or PDB records

Sequence | soluble on expression in E. coli
FLQNAVILGATENGLRLAEYLLEHQDIRSGVIGFIDDRIGRMPKTVANLPLLGNTSDLERLIREEKVTQVLVALPWTAENRMDYIIRELRRLPVNVLLVPDMIAFRHT | not soluble
MTTTLKAIVRKPRTDGLYAVYIRIVHNRKPGYIKTNKIVDADHISKDNEPTDPVVNEYCSMLVRQYTDRLNRANTTLWSVSEIIEYLLKTDEEVCFSDYSRMFIRQMRLDGHERNAKNYQLAVAHLERYMGTTRVMFGHLTAAVLKKWIESLSKTHRAKEMYPTNVRMIFRSAIADMNDDEKGIQRIKFDPWVKVQIPKSEPSEKLAISAEECREFFNRPLPRTKMLSSLPELGRDVALLSLCLGGINTVDLYNLKKSDYHDGIIGYKRAKTKHSRKDEAYIEMRVEPFIQDTFNKYLSEEEDEFLFTFHQRYGNTDSFNANVNIGIRKICMDMGMTNKEDFYCFYTFRHTWATIAQNDCNANLYEVAFGMNHSHGFKVTRGYVKVDFTPAWALNARIIDFIFFSNKPSKQGLAKDLDESGDKMFRISAKMMIYARAYFKGEVIAEFTDIGFNNVDEVLSRIVKMFPKDIPVGCTVQIRLTNCDNHKEVVYERSKGKGF | not soluble
MGSDKIHHHHHHMEDLNSLYYFTQVVEHGGFAPAGRALDMPKSKLSRRIADLEDRLGVRLLNRTSRHCSLTEIGQAYYNRCLAMRVEAEGAAEIIERNRSEPRGLVRISCPTTLLNSWVGPMLTRYMLKYPQVELFIESTNRRVDLLHEGFDIALRVRFPPLENTDMVMKVLSNSTQCLVGQPQYLAQLPKGFDPQLLGTLPSVHWGSAQREYQWELFQGEDNSRSIVIPHTPRMVTDDLFALRHFVVAGVGIAHLPRVAVREDLAAGRLVELIPDWHPRCGIVHAIFPSRRGLLPSVRALIDHLAEEFAISDMA | not soluble
MASIWVGHRGTVRDYPDFSPSVDAEAIQKAIRGIGTDEKMLISILTERSNAQRQLIVKEYQAAYGKELKDDLKGDLSGHFEHLMVALVTPPAVFDAKQLKKSMKGAGTNEDALIEILTTRTSRQMKDISQAYYTVYKKSLGDDISSETSGDFRKALLTLADGRRDESLKVDEHLAKQDAQILYKAGENRWGTDEDKFTEILCLRSFPQLKLTFDEYRNISQKDIVDSIKGELSGHFEDLLLAIVNCVRNTPAFLAERLHRALKGIGTDEFTLNRIMVSRSEIDLLDIRTEFKKHYGYSLYSAIKSDTSGDYEITLLKICGGDD | soluble
MAISSRNTLLAALAFIAFQAQAVNVTVAYQTSAEPAKVAQADNTFAKESGATVDWRKFDSGASIVRALASGDVQIGNLGSSPLAVAASQQVPIEVFLLASKLGNSEALVVKKTISKPEDLIGKRIAVPFISTTHYSLLAALKHWGIKPGQVEIVNLQPPAIIAAWQRGDIDGAYVWAPAVNALEKDGKVLTDSEQVGQWGAPTLDVWVVRKDFAEKHPEVVKAFAKSAIDAQQPYIANPDVWLKQPENISKLARLSGVPEGDVPGLVKGNTYLTPQQQTAELTGPVNKAIIDTAQFLKEQGKVPAVANDYSQYVTSRFVQ | soluble
MSLERPLCISYIRFSKATQAEGSSLERQLQLSRTYAEEHGLVLDDKHSYQDLGKSAFTSEHVKEGEFGVFLEFVKQGRVPKGSVLLVESLDRLSRESVLTAFKQFQEILDAGIKIVTLSDKMEYTKEGFEANIGNIFISLGIMARANEESLRKSERICAAWRLKRKNLHNIKLTANCPGWLELTPDKKDFILKEDRVEIVKQIFELSLSGLGVKAISTILNKQKIEPFRSKIGWYQTTVRKILSNSAVIGEFQPHVFGSKHSKPVPDGELIKDYFPPIIDTDTFYAVQAKLKNGAHREGHHHHHH | soluble
MGSDKIHHHHHHMTRIASHRGGTLEFGDSTPHGFTATAAMALEEVEFDLHPTADGAIVVHHDPTLDATTDMTGAIVDMTLAKVKTATIRYGAGSHPMTLEELCALYVDSHVNFRCEIKPGVDGLPYEGFVALVIAGLERHSMLERTTFSSFLLASMDELWKATTRPRLWLVSPSVLQQLGPGAVIETAIAHSIHEIGVHIDTADAGLMAQVQAAGLDFGCWAAHTPSQITKALDLGVKVFTTDRPTLAIALRTEHRMEASV | not soluble
MKYRSVFDIIGPVMIGPSSSHTAGAARMGQVARQLFRHEPERVSISLYGSFAKTYRGHGTDVALIGGILGFETDDLRIPEALEIAKEREIEVEFIEEDANAPHPNTARIRLYKGEEEIEVVACSIGGGKIEVVELNGFDLQLSGTSPALLIVNNDRFGAIAAVASILAKHEINISTMSVSRKEKGRRALMVIETDEILADEVIEEIKAQQNICQVTIME | not soluble
